B1: JAZ1 + 5 extension from JAZ6 (peptide)
peptide: VERIARRASLHRFLEKRKDRV
B2: JAZ6 + 5 extension (peptide)
peptide: VERIARRASLHRFFAKRKDRV
B3: ASK1 (other, Arabidopsis thaliana, UniProt Q39255 1-160, looked up)
chain: MSAKKIVLKSSDGESFEVEEAVALESQTIAHMVEDDCVDNGVPLPNVTSKILAKVIEYCKRHVEAAASKAEAVEGAATSDDDLKAWDADFMKIDQATLFELILAANYLNIKNLLDLTCQTVADMIKGKTPEEIRTTFNIKNDFTPEEEEEVRRENQWAFE
notes: mature
B4: JAZ1 + 5 extension (peptide)
peptide: ELPIARRASLHRFLEKRKDRV
notes: also called JAZ1 +5 extension peptide; JAZ1 degron +5 peptide
B5: JAZ1 + 6 extension + PY motif (peptide)
peptide: ELPIARRASLHRFLEKRKDRVTSKAPY
notes: also called JAZ1-extension +5+PY; JAZ1 +5 extension with the six C-terminal residues added back on
B6: JAZ7 + 5 extension (peptide)
peptide: YQKASMKRSLHSFLQKRSLRI
B7: JAZ6 + 10 extension (peptide)
peptide: QQHQVVERIARRASLHRFFAKRKDRV
B8: full-length JAZ1 (other)
chain: MSSSMECSEFVGSRRFTGKKPSFSQTCSRLSQYLKENGSFGDLSLGMACKPDVNGTLGNSRQPTTTMSLFPCEASNMDSMVQDVKPTNLFPRQPSFSSSSSSLPKEDVLKMTQTTRSVKPESQTAPLTIFYAGQVIVFNDFSAEKAKEVINLASKGTANSLAKNQTDIRSNIATIANQVPHPRKTTTQEPIQSSPTPLTELPIARRASLHRFLEKRKDRVTSKAPYQLCDPAKASSNPQTTGNMSWLGLAAEI
B9: JAZ1 + 4 extension (peptide)
peptide: LPIARRASLHRFLEKRKDRV
B10: JAZ1 + polyA extension (peptide)
peptide: AAAAARRASLHRFLEKRKDRV

Key:
[1] = biological target: COI1/ASK1 complex (full-length Arabidopsis thaliana COI1 co-expressed with ASK1) (Arabidopsis thaliana) (UniProt Q39255); assay: cell-based or functional assay
[2] = biological target: T1, COI1/ASK1 complex (full-length Arabidopsis thaliana COI1 co-expressed with ASK1) (Arabidopsis thaliana, UniProt Q39255 1-160); assay: 3H-coronatine radioligand binding with COI1/ASK1 and synthetic peptide
T1 construct: mature; Purified from Hi5 insect cells; co-purifies with Ins(1,2,4,5,6)P5 cofactor; also called COI/ASK1; untreated COI1
T1 sequence 1: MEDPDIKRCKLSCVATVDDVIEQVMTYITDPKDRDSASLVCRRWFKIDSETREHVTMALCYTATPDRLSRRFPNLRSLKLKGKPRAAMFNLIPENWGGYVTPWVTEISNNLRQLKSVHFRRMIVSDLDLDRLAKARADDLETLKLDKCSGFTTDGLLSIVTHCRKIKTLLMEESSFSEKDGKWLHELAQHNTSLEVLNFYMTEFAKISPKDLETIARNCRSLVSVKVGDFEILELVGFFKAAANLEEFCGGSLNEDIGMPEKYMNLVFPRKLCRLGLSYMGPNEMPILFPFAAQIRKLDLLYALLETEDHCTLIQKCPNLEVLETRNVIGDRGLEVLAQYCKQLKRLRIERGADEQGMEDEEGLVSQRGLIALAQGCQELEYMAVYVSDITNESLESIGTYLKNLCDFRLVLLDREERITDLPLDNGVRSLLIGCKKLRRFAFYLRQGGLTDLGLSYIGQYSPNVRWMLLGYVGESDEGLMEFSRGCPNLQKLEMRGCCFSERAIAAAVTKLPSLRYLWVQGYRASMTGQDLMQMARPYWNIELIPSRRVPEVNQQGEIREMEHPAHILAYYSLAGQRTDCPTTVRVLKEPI
T1 sequence 2: B3 chain

[3] = biological target: T2, Arabidopsis thaliana COI1 (Arabidopsis thaliana, UniProt O04197 1-592); assay: crystal structure
T2 construct: also called wild-type COI1
T2 sequence: T1 sequence 1

[4] = biological target: T1, COI1/ASK1 complex (full-length …); assay: saturation radioligand binding (3H-coronatine) with COI1/ASK1 and the synthetic peptide
[5] = biological target: T1, COI1/ASK1 complex (full-length …); assay: cell-based or functional assay

Row | Molecule | binding result [2] | other results
1 | full-length JAZ6 (from UniProt Q9C9E3 1-269) |  | KD of 3H-coronatine saturation binding to COI1/ASK1 in the presence of JAZ6 [1]: 48 nM; KD of 3H-coronatine saturation binding to the COI1/JAZ6 complex [1]: 68 nM
2 | B1 | no binding | 
3 | B2 | no binding | 
4 | B3 |  | binding result [3]: binds
5 | B4 |  | Kd [4]: 108 nM
6 | B5 | binds | 
7 | B6 | no binding | 
8 | B7 | no binding | 
9 | B8 |  | KD of 3H-coronatine saturation binding to COI1/ASK1 in the presence of JAZ1 [5]: 68 nM; KD of 3H-coronatine saturation binding to the COI1/JAZ1 complex [5]: 48 nM
10 | B9 | binds | 
11 | B10 | no binding | 
